As usually defined, the Kd is a measure of binding affinity in units of concentration. High values mean a looser complex, low ones a tighter complex.

Consider 2 molecules from article PMC4686660, “MLLT1 YEATS domain mutations in clinically distinctive Favourable Histology Wilms tumours” (Nature Communications, 2015).

Assay in all cases: ITC; YEATS domain in the measurement cell (90-130 uM), histone peptides in the injection syringe (1.2 mM); 50 mM Hepes pH 7.4, 300 mM NaCl, 5 mM beta-mercaptoethanol, 25 °C; MicroCal ITC200 and TA Nano microcalorimeters; triplicate
(ITC needs no label: the signal is the heat of the interaction.)

For test [1], the target named is wild-type MLLT1 YEATS domain polypeptide (residues 1-138 of human MLLT1) (human) (UniProt Q03111).
The target of test [2] is MLLT1 YEATS domain polypeptide p.111_113NPP>K (human) (UniProt Q03111).
The target in test [3] is T1, MLLT1 YEATS domain polypeptide p.112_114PPV>L (human, UniProt Q03111 1-138, p.112_114PPV>L).
T1 construct: Somatic mutation found in tumours; source: E. coli BL21(pLysS), purified (Ni-NTA sepharose, size exclusion chromatography)
T1 sequence (looked up): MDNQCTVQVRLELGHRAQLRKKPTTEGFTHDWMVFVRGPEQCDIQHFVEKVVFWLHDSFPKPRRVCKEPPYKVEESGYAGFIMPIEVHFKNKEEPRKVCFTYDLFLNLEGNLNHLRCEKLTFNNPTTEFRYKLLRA
The settings on record: both partners purified.

Test [4] deals with T2, wild-type MLLT1 YEATS domain polypeptide (residues 1-138 of human MLLT1) (human, UniProt Q03111 1-138).
T2 construct: MLLT1 (ENL), human, YEATS domain, residues 1-138; codon-optimized DNA in pET28 with a thrombin cleavage site between the 6His tag and the protein; also called ENL; YEATS1; source: E. coli BL21(pLysS), purified (Ni-NTA sepharose, size exclusion chromatography)
T2 sequence (looked up): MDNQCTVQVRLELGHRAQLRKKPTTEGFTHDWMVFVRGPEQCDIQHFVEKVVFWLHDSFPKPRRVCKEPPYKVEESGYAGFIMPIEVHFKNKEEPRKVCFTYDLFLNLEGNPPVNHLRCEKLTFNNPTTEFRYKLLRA
The conditions noted are these: both partners purified.

For H3K27ac histone H3 tail peptide, the Kd in test [1] was determined as 140 µM; in test [2], 330 µM.

B1: H3K9ac histone H3 tail peptide (peptide)
chain: ARTKQTARKST
modifications: acetyl-lysine at K9
With B1, the Kd in test [3] is 107 µM; in test [4], 60 µM.
